According to paper PMC2673036, “Ancient mtDNA Genetic Variants Modulate mtDNA Transcription and Replication”:

T1: TFAM (mitochondrial transcription factor A) (UniProt Q00059 43-246)
T1 sequence: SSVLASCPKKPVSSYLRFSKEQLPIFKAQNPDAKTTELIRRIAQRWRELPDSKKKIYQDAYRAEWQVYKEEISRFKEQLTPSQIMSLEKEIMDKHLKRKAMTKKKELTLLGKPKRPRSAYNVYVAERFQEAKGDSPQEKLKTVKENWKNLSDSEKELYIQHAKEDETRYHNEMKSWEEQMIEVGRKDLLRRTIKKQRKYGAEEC


Legend:
[1] = target: T1, TFAM (mitochondrial transcription …); assay: EMSA; TFAM:probe 10:1 and 25:1; reference for normalization; 10 mM Tris-HCl pH 7.5, 10 mM KCl, 1 mM DTT, 1 mM EDTA, 6% glycerol; 3 nM probe, 30 or 75 nM TFAM; 30 min, room temperature; 5% native PAGE, 0.5x TBE; details: protein: recombinant; (PNK end label); blunt
[2] = target: T1, TFAM (mitochondrial transcription …); assay: EMSA; TFAM:probe 10:1 and 25:1; increased binding vs wt-295, exact value only in figure; 10 mM Tris-HCl pH 7.5, 10 mM KCl, 1 mM DTT, 1 mM EDTA, 6% glycerol; 3 nM probe, 30 or 75 nM TFAM; 30 min, room temperature; 5% native PAGE, 0.5x TBE; details: protein: recombinant; (PNK end label); blunt

Binder	binding signal [1]	binding signal [2]
wt-295 (CRS 276-303) (dsDNA) DNA 1: ACATCATAACAAAAAATTTCCACCAAAC DNA 2: GTTTGGTGGAAATTTTTTGTTATGATGT	1 relative to wt-295	–
C295T-VAR (haplogroup J, 276-303) (dsDNA) DNA 1: ACATCATAACAAAAAATTTTCACCAAAC DNA 2: GTTTGGTGAAAATTTTTTGTTATGATGT	–	> 1 relative to wt-295
